Source: publication PMC6380423 (mAbs, 2019)
Values belong to the molecule of their own block, whether it stands above or below them.

How the values were obtained:
[1] = target: B cell receptor (BCR) (human (endogenous in Ramos)); test: FRET or BRET
FRET or BRET = target: the molecule itself; test: FRET or BRET

- normalized FCET at 30 min of BCR stimulation [1]: 2.6 units
- normalized FCET at 30 min of BCR stimulation, with the CD47xCD19 biAb [1]: 1.5 units
- normalized FCET at 1 hour of BCR stimulation [1]: 3.6 units
- normalized FCET at 1 hour of BCR stimulation, with the CD47xCD19 biAb [1]: 1.9 units
Molecule: CD19 (from UniProt P15391 20-556) (receptor)

B1: CD20 (receptor)
chain: MTTPRNSVNGTFPAEPMKGPIAMQSGPKPLFRRMSSLVGPTQSFFMRESKTLGAVQIMNGLFHIALGGLLMIPAGIYAPICVTVWYPLWGGIMYIISGSLLAATEKNSRKCLVKGKMIMNSLSLFAAISGMILSIMDILNIKISHFLKMESLNFIRAHTPYINIYNCEPANPSEKNSPSTQYCYSIQSLFLGILSVMLIFAFFQELVIAGIVENEWKRTCSRPKSNIVLLSAEEKKEQTIEIKEEVVGLTETSSQPKNEEDIEIIPIQEEEEEETETNFPEPPQDQESSPIENDSSP
- normalized FCET (fold over baseline), with the anti-CD20 mAb rituximab (FRET or BRET): 6.7 fold

B2: CD19 (receptor)
chain: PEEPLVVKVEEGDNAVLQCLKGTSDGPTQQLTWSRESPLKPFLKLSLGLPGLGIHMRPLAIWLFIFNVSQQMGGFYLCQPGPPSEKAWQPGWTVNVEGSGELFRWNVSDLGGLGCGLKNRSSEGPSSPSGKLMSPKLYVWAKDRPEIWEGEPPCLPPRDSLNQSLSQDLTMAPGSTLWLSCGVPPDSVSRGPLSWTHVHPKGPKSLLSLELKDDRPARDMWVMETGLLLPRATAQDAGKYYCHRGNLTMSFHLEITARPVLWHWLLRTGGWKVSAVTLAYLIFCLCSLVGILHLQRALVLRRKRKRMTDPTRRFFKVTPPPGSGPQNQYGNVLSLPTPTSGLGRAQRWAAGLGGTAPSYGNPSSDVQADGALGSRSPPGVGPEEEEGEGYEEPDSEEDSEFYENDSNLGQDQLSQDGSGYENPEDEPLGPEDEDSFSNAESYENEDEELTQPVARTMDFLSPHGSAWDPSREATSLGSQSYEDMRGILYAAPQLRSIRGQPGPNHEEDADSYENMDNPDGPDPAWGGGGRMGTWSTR
- normalized FCET (fold over baseline), with the bivalent anti-CD19 mAb (FRET or BRET): 8.2 fold
